In the supplement of paper PMC10126150:
± gives the standard deviation of the averaged measurements.

Tested on: ATP
Assay: switch fluorescence ratio, 500 uM ATP over buffer (Cy3 cluster intensity, sum of 5 cycles each) (fold (ratio)); higher = stronger signal-on switching upon ATP binding; sequences stand for … in TCGTCGGCAGCGTCAGATGTGTATAAGAGACAGTTTTTTTTTTTTTTTTTTTTTTTTT…TC
Conditions: aptamer strand: ATP DNA aptamer (quencher-CACCTGGGGGAGTATTGCGGAGGAAGG + anchor), 100 nM annealed; ATP concentration: 500 uM
How it was run: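 After annealing to 100 nM quencher-labelled ATP aptamer, Cy3-labelled switching-strand clusters on a modified Illumina MiSeq flow-cell were imaged in selection buffer. A second image followed after 15 min with 500 uM ATP at 22 °C, and five such buffer/ATP cycles were done, each separated by NaOH stripping and re-annealing. The fluorescence ratio, averaged per switch-domain sequence, is summed target-cycle over summed buffer-cycle Cy3 intensity per cluster, with clusters outside 100-1000 RFU excluded.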
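Further: ATP exposure 15 min at 22 °C before imaging.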

Sequence | switch fluorescence ratio
AAGGCGAGTA | 0.997 ± 0.017
AAGGCGGGTT | 0.9894 ± 0.0085
AAGGCGTAC | 1.24 ± 0.17
AAGGCGTAGT | 0.979 ± 0.055
AAGGCTTAGT | 1.01 ± 0.052
AAGGGAAAGG | 1 ± 0.013
AAGGGAACGG | 0.971 ± 0.022
AAGGGAACTC | 1.03 ± 0.02
AAGGGAATAA | 1.11 ± 0.11
AAGGGACACA | 1.05 ± 0.011
AAGGGAGATT | 0.968 ± 0.011
AAGGGAGGAC | 0.9939 ± 0.002
AAGGGAGGGC | 0.96 ± 0.032
AAGGGATATG | 1 ± 0.013
AAGGGATGAT | 0.978 ± 0.019
AAGGGATTGA | 1.01 ± 0.011
AAGGGCATTT | 1.04 ± 0.028
AAGGGCCCAA | 1.004 ± 0.0074
AAGGGCCCTT | 1.01 ± 0.018
AAGGGCGAGC | 0.985 ± 0.1
AAGGGCGCCC | 1.14 ± 0.18
AAGGGCGGGT | 1.03 ± 0.014
AAGGGCTCGG | 1.07 ± 0.14
AAGGGCTGCA | 1.032 ± 0.0052
AAGGGCTTCC | 1.98 ± 0.038
AAGGGCTTTA | 1.01 ± 0.023

Sequence | switch fluorescence ratio
AAGGGGCCTG | 0.977 ± 0.018
AAGGGGCGTG | 0.997 ± 0.03
AAGGGGCTCT | 0.993 ± 0.033
AAGGGGCTTC | 0.985 ± 0.033
AAGGGGGAGG | 0.982 ± 0.034
AAGGGGGAGT | 0.996 ± 0.028
AAGGGGGATG | 1.01 ± 0.035
AAGGGGGGAG | 0.986 ± 0.026
AAGGGGGGCA | 0.966 ± 0.037
AAGGGGGGTA | 0.997 ± 0.037
AAGGGGGTCA | 1.016 ± 0.0063
AAGGGGGTGA | 1.01 ± 0.025
AAGGGGTCTC | 0.998 ± 0.021
AAGGGGTGAC | 0.977 ± 0.041
AAGGGGTGG | 1.02 ± 0.029
AAGGGGTTAG | 0.975 ± 0.016
AAGGGGTTT | 1.03 ± 0.065
AAGGGGTTTT | 1 ± 0.036
AAGGGTATGG | 0.9729 ± 0.0076
AAGGGTATTT | 1.01 ± 0.028
AAGGGTCACC | 0.999 ± 0.031
AAGGGTGCTC | 1.03 ± 0.047
AAGGGTGTAA | 1.01 ± 0.069
AAGGGTTATG | 0.994 ± 0.027
AAGGGTTGGC | 0.983 ± 0.094
AAGGGTTTCT | 1.02 ± 0.038

Sequence | switch fluorescence ratio
AAGGGTTTGT | 0.986 ± 0.017
AAGGTAATGG | 1.02 ± 0.014
AAGGTACCAG | 1.03 ± 0.036
AAGGTAGCTT | 1.011 ± 0.0094
AAGGTAGGCC | 0.96 ± 0.016
AAGGTATTGA | 0.9782 ± 0.0046
AAGGTATTTT | 1.01 ± 0.037
AAGGTCGGGT | 1.01 ± 0.043
AAGGTGAATT | 1.06 ± 0.021
AAGGTGGGGT | 1.03 ± 0.026
AAGGTGGTTT | 0.957 ± 0.048
AAGGTGTTCG | 0.957 ± 0.016
AAGGTTAAGT | 1.02 ± 0.016
AAGGTTAATA | 0.976 ± 0.08
AAGGTTACGC | 1.05 ± 0.024
AAGGTTATTG | 1.026 ± 0.0088
AAGGTTGGAT | 0.987 ± 0.012
AAGGTTGGTT | 0.983 ± 0.068
AAGGTTTCGT | 1 ± 0.024
AAGGTTTTCG | 1.01 ± 0.026
AAGGTTTTGC | 0.99 ± 0.058
AAGTAAATTT | 1.0226 ± 0.0004
AAGTAACGCG | 0.977 ± 0.013
AAGTAACGTC | 1.041 ± 0.01
AAGTAAGGGG | 0.955 ± 0.054
AAGTAATGGA | 1.04 ± 0.06

Sequence | switch fluorescence ratio
AAGTACGACT | 1.1 ± 0.016
AAGTACGCGG | 1.01 ± 0.046
AAGTACGGCC | 1.16 ± 0.025
AAGTACTCCA | 1.335 ± 0.0082
AAGTAGGGGA | 1.02 ± 0.021
AAGTAGGTAG | 0.9786 ± 0.002
AAGTAGTCGT | 1.01 ± 0.05
AAGTATGCTT | 1.01 ± 0.021
AAGTCAAAGT | 1.03 ± 0.051
AAGTCAGAGC | 0.97 ± 0.097
AAGTCAGCGA | 1.02 ± 0.014
AAGTCAGTTG | 1.02 ± 0.059
AAGTCATTAA | 0.99 ± 0.031
AAGTCCACAC | 1.05 ± 0.041
AAGTCCGGCA | 1 ± 0.037
AAGTCCGTTG | 1.009 ± 0.0083
AAGTCCGTTT | 1.02 ± 0.044
AAGTCCTGCC | 1.26 ± 0.081
AAGTCCTTGT | 1.02 ± 0.013
AAGTCGAGTG | 0.994 ± 0.075
AAGTCGCGTT | 0.991 ± 0.0024
AAGTCGGGAC | 1.08 ± 0.039
AAGTCGTCGA | 1.028 ± 0.0025
AAGTCTCGGG | 0.995 ± 0.0026
AAGTGAATAT | 1.012 ± 0.0095
AAGTGATATA | 1.01 ± 0.017

Sequence | switch fluorescence ratio
AAGTGATGGT | 0.9999 ± 0.0069
AAGTGCAGCC | 1.01 ± 0.023
AAGTGCATGG | 0.986 ± 0.036
AAGTGCCGAG | 0.989 ± 0.027
AAGTGCGGCG | 1.03 ± 0.029
AAGTGGAATT | 1.03 ± 0.018
AAGTGGATCT | 0.988 ± 0.078
AAGTGGATTG | 1.003 ± 0.01
AAGTGGCATG | 0.974 ± 0.022
AAGTGGTATT | 0.992 ± 0.029
AAGTGGTCCT | 0.996 ± 0.018
AAGTGGTGGG | 0.985 ± 0.024
AAGTGGTGGT | 0.989 ± 0.011
AAGTGTGACT | 1 ± 0.019
AAGTGTGGGC | 0.984 ± 0.023
AAGTGTTGTC | 1.1 ± 0.033
AAGTTAATTC | 1.013 ± 0.0081
AAGTTAGTTT | 0.966 ± 0.043
AAGTTATCTG | 1.03 ± 0.027
AAGTTATGTA | 1.01 ± 0.031
AAGTTATTGT | 1.21 ± 0.33
AAGTTCAAGA | 0.99 ± 0.045
AAGTTCCGAG | 1.18 ± 0.045
AAGTTCGGG | 1.035 ± 0.0057
AAGTTCGGGA | 1 ± 0.029
AAGTTCGGTG | 0.9695 ± 0.0027

Sequence | switch fluorescence ratio
AAGTTCGTTG | 1.01 ± 0.036
AAGTTGATGT | 1 ± 0.017
AAGTTGCTAG | 0.9976 ± 0.0048
AAGTTGGAGG | 0.9797 ± 0.0024
AAGTTGGCGC | 1.01 ± 0.037
AAGTTGGGG | 0.99 ± 0.039
AAGTTGGGT | 0.95 ± 0.017
AAGTTGGGTA | 0.978 ± 0.024
AAGTTGTGCT | 0.972 ± 0.014
AAGTTGTGGC | 1.01 ± 0.017
AAGTTGTGGT | 1.01 ± 0.023
AAGTTTAGTA | 1.01 ± 0.029
AAGTTTATCA | 1.003 ± 0.0032
AAGTTTGGGA | 1.07 ± 0.091
AAGTTTGGGG | 0.983 ± 0.043
AAGTTTGTTG | 0.986 ± 0.023
AAGTTTTAAA | 0.968 ± 0.013
AAGTTTTATT | 0.992 ± 0.043
AAGTTTTCGG | 0.989 ± 0.052
AAGTTTTGAG | 1.03 ± 0.019
AAGTTTTGTA | 0.985 ± 0.05
AAGTTTTTCC | 1.04 ± 0.021
AAGTTTTTTC | 1.012 ± 0.0053
